Measured values as given in patent US20220096654A1, “PYRROLOBENZODIAZEPINE-ANTIBODY CONJUGATES AND USES THEREOF” (ADC THERAPEUTICS SA, priority 2020, published 2022).

B1: YTH54.12-B1: rat IgG2b anti-CD45 antibody YTH54.12 conjugated to cleavable PBD drug-linker B1 (drawing 43) (conjugate)
heavy: EVQLVESGGGLVQPGGSMKLSCAASGFTFSDYYMAWVRQAPKKGLEWVASMSFAGSSTYYGDSVKGRFTISRDNAKTTLYLQMNSLRSEDTATYYCARMYTTDYYLYWYFDFWGPGTMVTVSSAQTTAPSVYPLAPGCGDTTSSTVTLGCLVKGYFPEPVTVTWNSGALSSDVHTFPAVLQSGLYTLTSSVTSSTWPSQTVTCNVAHPASSTKVDKKVERRNGGIGHKCPTCPTCHKCPVPELLGGPSVFIFPPKPKDILLISQNAKVTCVVVDVSEEEPDVQFSWFVNNVEVHTAQTQPREEQYNSTFRVVSALPIQHQDWMSGKEFKCKVNNKALPSPIEKTISKPKGLVRKPQVYVMGPPTEQLTEQTVSLTCLTSGFLPNDIGVEWTSNGHIEKNYKNTEPVMDSDGSFFMYSKLNVERSRWDSRAPFVCSVVHEGLHNHHVEKSISRPPGK
light: DVQMTQSPSYLAASPGESVSISCKASKSISNYLAWYQQKPGEANKILIYSGSTLQSGTPSRFSGSGSGTDFSLTIRNLEPEDFAVYYCQQYDEKPLTFGSGTKLEIKRADAAPTVSIFPPSMEQLTSGGATVVCFVNNFYPRDISVKWKIDGSEQRDGVLDSVTDQDSKDSTYSMSSTLSLTKVEYERHNLYTCEVVHKTSSSPVVKSFNRNEC
B2: YTH24.5-B1: rat IgG2b anti-CD45 antibody YTH24.5 conjugated to cleavable PBD drug-linker B1 (drawing 43) (conjugate)
heavy: QVNLLQSGAALVKPGASVKLSCKASSYTFTDYYIHWVKQSHGKTLEWIGYINPKSGFTNYNEKFRRKATLTVDKSTNTAYMDISRLTSEDSATYYCTRRTGVIPMDAWGQGASVTVSSAQTTAPSVYPLAPGCGDTTSSTVTLGCLVKGYFPEPVTVTWNSGALSSDVHTFPAVLQSGLYTLTSSVTSSTWPSQTVTCNVAHPASSTKVDKKVERRNGGIGHKCPTCPTCHKCPVPELLGGPSVFIFPPKPKDILLISQNAKVTCVVVDVSEEEPDVQFSWFVNNVEVHTAQTQPREEQYNSTFRVVSALPIQHQDWMSGKEFKCKVNNKALPSPIEKTISKPKGLVRKPQVYVMGPPTEQLTEQTVSLTCLTSGFLPNDIGVEWTSNGHIEKNYKNTEPVMDSDGSFFMYSKLNVERSRWDSRAPFVCSVVHEGLHNHHVEKSISRPPGK
light: DVVMTQTPVSLSVSLGGQVSISCRSSQSFVSSDGNTYLNWYLQKPGQSPQLLIYKVSNRLSGVPDRFSGSGSGTDFTLKISRVEHDDLGVYYCGQASKIPLTFGSGTKLEIKRADAAPTVSIFPPSMEQLTSGGATVVCFVNNFYPRDISVKWKIDGSEQRDGVLDSVTDQDSKDSTYSMSSTLSLTKVEYERHNLYTCEVVHKTSSSPVVKSFNRNEC

Columns and labels:
human CD45+ cells [1] = experiment: Engraftment of a second transplant of GFP+ autologous CD34+ cells in humanised NSG mice after conditioning; assay type: in vivo; details: 1 mg/kg (combination 0.5 mg/kg each); 9 weeks after GFP+ cell transplant
Method: Adult female NSG mice were sublethally irradiated with 2.5 Gy on the day before transplantation (day −1). Cryopreserved purified CD34+ cells from mobilized peripheral blood from a normal donor were thawed and 0.5×10^6 cells in PBS were injected intravenously into the tail vein of mice (day 0). Human engraftment (human CD45+ cells) in the blood of mice was assessed at week 8. Mice were assigned to treatment cohorts so that the median human CD45+ engraftment in the blood for each cohort was as similar as possible. Mice were injected with 1 mg/kg Mab or ADC or a combination of YTH MAbs (0.5 mg/kg each) or YTH ADCs (0.5 mg/kg each) intravenously via the tail vein. Mice were subsequently transplanted with lentivirally transduced green fluorescent protein (GFP) autologous CD34+ cells (Week 10). A separate cohort of sublethally irradiated (non-humanized) NSG were injected with the same batch of GFP transduced cells served as a positive control for GFP+ human cell engraftment. Nine weeks after GFP+ cell transplant, mice were culled and blood, spleen and bone marrow taken for analysis.

human CD45+ cells [2] = experiment: Allogeneic stem cell transplant model in humanized NSG mice, comparison of payloads; assay type: in vivo; details: 1 mg/kg; for mean % hCD45+ engraftment in the bone marrow: 8 weeks after allogeneic GFP+ cells, PBS 14.12%
Method: Adult NSG mice (Charles River Laboratories) were sublethally irradiated with 2.5 Gy in a ^137Cs irradiator. On the following day, mice were injected with 0.5×10^6 freshly thawed cryopreserved human CD34+ cells from a health donor were injected via the tail vein in 150 μL PBS using a 29 gauge MicroFine Plus insulin syringe (BD). Engraftment of human cells in the blood was assessed periodically from 6 weeks after transplantation. At 10 weeks post-transplant, humanized NSG mice were assigned into cohorts with similar median human CD45+ cell engraftment in the blood, as determined by flow cytometry. Mice were injected with PBS or 1 mg/kg YTH24.5-B1. Sixteen 16 days after treatment, mice were transplanted with 0.5×10^6 GFP+CD34+ cells from another healthy donor. Irradiated NSG […] were also transplanted with the GFP+CD34+ from the allogeneic healthy donor as a control for engraftment of the GFP+CD34+ cells. 8 weeks after transplantation of GFP+ cells, mice were culled and blood, spleen and bone marrow taken for analysis by flow cytometry.
Experimental schedule is as previously described in example 16 but with the following modifications. Humanized NSG mice at 10 weeks post-transplant were injected with PBS or 1 mg/kg YTH24.5-B1, YTH54.12-B1, Isotype-B1, YTH24.5-B4 and Isotype-3376. Isotype-B2 and YTH24.5-B2 was given at a dose of 5 mg/kg. Transplantation of 0.5×10^6 GFP+CD34+ from an allogeneic human donor and analysis at 8 weeks post-transplant of GFP+ cells was carried out as previously described.

[3] = 1 mg/kg, NSG mice; for T %: serum ELISA
Method: Adult (non-humanized) NSG mice were injected with 1 mg/kg ADC. Three mice were used for each ADC. Samples were taken from mice at between 3 h and 168 h after injection. Serum samples were analyzed by ELISA using recombinant human CD45 (Bio-Techne). Goat anti-rat IgG (H+L) (cross absorbed) and sulfoTAG Streptavidin was used to detect the total amounts of the YTH antibodies. Anti-drug antibody was used to detect the level of conjugated antibody.

Nalm6 (CD45-) [4] = experiment: Cell viability assay 5 days (PrestoBlue), Nalm6; assay type: cell-based, human; details: rat IgG2b ADC, n=3
human CD34+ cells = experiment: Ex vivo treatment of CD34+ cells with Mab or ADC prior to engraftment in NSG mice; details: CD34+ cells treated at 1 nM and 0.1 nM for 4 hours before transplantation; week 8
Method: Adult female NSG mice were sublethally irradiated with 2.5 Gy on the day before transplantation. Cryopreserved purified CD34+ cells from mobilized peripheral blood from a normal donor were thawed and cultured in complete medium (RPMI 1640 plus 10% fetal calf serum) in presence of Mab, ADC or medium alone for 4 hours. Cells were washed in phosphate buffered saline (PBS) and 0.5×10^6 cells in PBS were injected intravenously into the tail vein of mice. Engraftment of transplanted human cells (hCD45+) in the bone marrow of mice was determined by flow cytometry at 8 weeks after transplantation.

293T (CD45-) = experiment: Cell viability assay 5 days (PrestoBlue), 293T; assay type: cell-based, human; details: rat IgG2b ADC, n=3
Nalm6 (CD45-) [5] = experiment: Cell viability assay 72 h (PrestoBlue), Nalm6; assay type: cell-based, human; details: drug-linker B1
Method: OCIM1, Jurkat and Nalm6 cells were seeded at 0.5×10^5/mL were cultured for 72 hours in presence of Mab or ADC or medium (in triplicate wells) in wells of flat bottom 96-well plates. 293T cells were seeded at 9.3×10^3 cells per well in flat bottom 96-well plates and allowed to adhere the plate for up to 24 hours. 293T cells were subsequently cultured with Mab or ADC or medium (in triplicate wells) for 72 hours. PrestoBlue® Cell viability Reagent (Thermo Fisher Scientific) was added to each and incubated for up to 1.5 hours. Fluorescence intensity from each well was detected using a FLUOstar OPTIMA microplate reader (BMG Labtech). Data points are mean±s.d. for representative experiments.

[6] = test system: luciferase expressing human CD45+ Jurkat cells; experiment: Jurkat leukaemia model in NSG mice (bioluminescence, survival); assay type: in vivo; details: 1 mg/kg; for mice remained leukaemia free: day 16
Method: Adult NSG mice were sublethally irradiated with 2 Gy on the day before injection of cells. 5×10^6 fire fly luciferase expressing Jurkat cells in PBS were injected intravenously into the tail vein of mice. On the following day PBS, MAbs or ADC were injected intravenously into the tail vein at a dose of 1 mg/kg. Mice were regularly monitored for signs of morbidity and weight loss for the duration of the experiment. For imaging, mice were injected intraperitoneally with 3 mg D-luciferin in PBS. Mice were initially anesthetized with 4% isoflurane and then maintained at 2% isoflurane. Ten minutes after injection of D-luciferin, mice were imaged inside a IVIS Lumina III (PerkinElmer). A sub-saturating image was captured using the auto-exposure setting in the Living Image software.

| Molecule | GFP+CD34+ out of total human CD34+ cells in the bone marrow (human CD45+ cells [1]) | percentage GFP+ human CD34+ cells in the bone marrow (mean) (human CD45+ cells [2]) | mean % hCD45+ engraftment in the bone marrow (human CD45+ cells [2]) | AUC relative to YTH24.5-PBD [3] | time after injection by which below the lower limit of detection [3] | T % [3] | EC50 (Nalm6 (CD45-) [4]) | engraftment of human CD45+ cells in the bone marrow of NSG mice (human CD34+ cells) | EC50 (293T (CD45-)) | EC50 (Nalm6 (CD45-) [5]) | surviving mice at end of day 70 [6] | mice remained leukaemia free [6] |
| --- | --- | --- | --- | --- | --- | --- | --- | --- | --- | --- | --- | --- |
| B1 | ~80% | 69.40% | 16.34% | ~1.5 times | ~4 days | 1.53 days | 0.00964 nM | prevented engraftment | > 6 nM | 4.23 nM | had surviving mice | 4 of 5 |
| B2 | ~80% | 59.13% | 16.45% | – | ~4 days | 1.49 days | 0.00934 nM | prevented engraftment | > 6 nM | 2.83 nM | had surviving mice | 5 of 5 |
